Patent US20190359983, “TARGETED OLIGONUCLEOTIDES” (CARIS SCIENCE, INC., published 2019)

B1: 83S-B1 full (ssDNA)
DNA: CTAGCATGACTGCAGTACGTACTATAGAACAATCCACCGCTTTAAATCAACTATCTTACTGTCTCTTATACACATCTGACGCTGCCGACGA
B2: 83S-B11 full (ssDNA)
DNA: CTAGCATGACTGCAGTACGTAACCCAATTCACATACACTCTCACCCCCACTAAACACTGTCTCTTATACACATCTGACGCTGCCGACGA

How the values were obtained:
[1] = target: T1, Complement C1q (C1qA/C1qB/C1qC) (UniProt P02745;P02746;P02747 P02745:23-245,P02746:28-253,P02747:29-245); assay: FP filter; nitrocellulose filter retention; concentration dependent binding; settings: chain copies: 6; label: radiolabel (filter); biotin (pulldown)
Protocol: (§1) To further investigate the interaction of aptamer B1 and B11 with C1q, we performed a filter retention assay. Radioactively labelled B1 and B11 were incubated with increasing concentrations of purified C1q and subsequently passed through a nitrocellulose membrane. The amount of oligonucleotides retained on membrane-immobilized C1q was then quantified by autoradiography. […] Similar results were obtained with B11 and B11rc in an Enzyme-Linked Oligonucleotide Assay (ELONA; see U.S. Pat. No. 5,789,163, which patent is incorporated herein in its entirety). […] As a control, the reverse complement of B11, B11RC, was used (squares).

[2] = target: T1, Complement C1q (C1qA/C1qB/C1qC); assay: ELONA; estimated; C1q fixed at 0.625 nM; settings: chain copies: 6; label: radiolabel (filter); biotin (pulldown, ELONA)
Protocol: as §1

T1 sequence (P02745 23-245, chain 1 of 3): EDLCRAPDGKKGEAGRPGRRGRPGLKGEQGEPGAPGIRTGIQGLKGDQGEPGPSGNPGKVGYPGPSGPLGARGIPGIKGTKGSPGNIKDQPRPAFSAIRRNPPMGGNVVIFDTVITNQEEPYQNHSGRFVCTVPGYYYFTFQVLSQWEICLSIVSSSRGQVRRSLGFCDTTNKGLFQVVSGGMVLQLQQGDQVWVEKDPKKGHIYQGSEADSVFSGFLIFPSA
T1 sequence (P02746 28-253, chain 2 of 3): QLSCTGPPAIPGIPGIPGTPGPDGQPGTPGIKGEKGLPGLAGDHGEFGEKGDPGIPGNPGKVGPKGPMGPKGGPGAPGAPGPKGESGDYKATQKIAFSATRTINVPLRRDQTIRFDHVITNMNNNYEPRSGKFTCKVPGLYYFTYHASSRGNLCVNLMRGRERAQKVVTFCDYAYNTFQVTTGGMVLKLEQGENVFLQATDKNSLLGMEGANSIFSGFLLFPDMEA
T1 sequence (P02747 29-245, chain 3 of 3): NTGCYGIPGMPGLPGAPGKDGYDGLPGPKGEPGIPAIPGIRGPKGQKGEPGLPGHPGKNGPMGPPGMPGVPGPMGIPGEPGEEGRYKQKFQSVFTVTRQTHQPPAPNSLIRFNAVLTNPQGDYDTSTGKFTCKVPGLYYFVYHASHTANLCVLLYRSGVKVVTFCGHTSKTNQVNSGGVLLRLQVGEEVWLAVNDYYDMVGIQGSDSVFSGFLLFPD

Row | Binder | binding result [1] | Kd [2] [nM]
1 | B1 | binds | 
2 | B2 |  | ~40
